The source of these data is doi:10.1101/2023.08.15.553295 (bioRxiv, 2023).

Assay [1] addresses T1, DCAF12 (Δ1-78) (human, UniProt Q5T6F0 79-453). Description: fluorescence polarisation.
In assay [2] the target is biotinylated DCAF12 (Δ1-78) (human, UniProt Q5T6F0 79-453, biotin). As to the kind of experiment: SPR.
Assay [3] addresses T1, DCAF12 (Δ1-78). As to the kind of experiment: fluorescence polarisation. This is another data set of the same source.
Another assay concerns the target HaloTag-DCAF12 wild type (human, UniProt Q5T6F0 1-453). As to the kind of experiment: FRET or BRET.

Ends that are not written are not given here.

T1 sequence (Q5T6F0 79-453, stated change not applied): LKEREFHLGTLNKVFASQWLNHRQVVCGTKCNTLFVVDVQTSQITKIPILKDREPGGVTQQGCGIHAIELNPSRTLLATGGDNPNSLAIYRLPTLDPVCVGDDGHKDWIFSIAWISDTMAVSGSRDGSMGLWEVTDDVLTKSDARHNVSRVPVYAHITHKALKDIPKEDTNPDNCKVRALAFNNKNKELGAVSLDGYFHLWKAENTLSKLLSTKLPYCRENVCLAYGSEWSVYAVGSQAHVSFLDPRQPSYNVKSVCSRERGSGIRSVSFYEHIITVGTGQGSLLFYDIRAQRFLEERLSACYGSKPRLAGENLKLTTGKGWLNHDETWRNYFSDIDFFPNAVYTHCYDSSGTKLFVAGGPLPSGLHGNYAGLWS
biotinylated DCAF12 (Δ1-78), sequence (Q5T6F0 79-453, stated change not applied): as above
HaloTag-DCAF12 wild type, sequence (Q5T6F0 whole entry): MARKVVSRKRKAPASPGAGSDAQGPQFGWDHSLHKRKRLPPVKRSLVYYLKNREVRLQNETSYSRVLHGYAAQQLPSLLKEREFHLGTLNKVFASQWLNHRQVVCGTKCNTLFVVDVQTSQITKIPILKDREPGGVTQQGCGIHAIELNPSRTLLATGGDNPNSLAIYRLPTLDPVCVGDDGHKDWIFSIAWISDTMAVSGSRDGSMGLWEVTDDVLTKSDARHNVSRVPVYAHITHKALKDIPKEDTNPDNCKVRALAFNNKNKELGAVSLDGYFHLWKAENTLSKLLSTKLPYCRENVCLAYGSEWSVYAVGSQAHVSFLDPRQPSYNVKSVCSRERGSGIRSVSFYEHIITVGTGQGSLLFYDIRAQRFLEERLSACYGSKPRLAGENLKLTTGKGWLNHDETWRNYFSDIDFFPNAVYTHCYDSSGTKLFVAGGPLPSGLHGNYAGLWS

B1: unlabeled MAGEA3 C-terminal degron peptide (peptide)
peptide: LHEWVLREGEE
On to B1, for which the binding result (with DCAF12 (Δ1-78) [1]; in assay [2]) was “binds” throughout.

B2: FITC-labeled MAGEA3 C-terminal degron peptide (peptide)
peptide: LHEWVLREGEE
modifications: also: FITC label, position not given here
On to B2, for which the Kd with DCAF12 (Δ1-78) [3] was less than 370 nM.

B3: NanoLuc-MAGEA3 full length (natural protein)
chain: MPLEQRSQHCKPEEGLEARGEALGLVGAQAPATEEQEAASSSSTLVEVTLGEVPAAESPDPPQSPQGASSLPTTMNYPLWSQSYEDSSNQEEEGPSTFPDLESEFQAALSRKVAELVHFLLLKYRAREPVTKAEMLGSVVGNWQYFFPVIFSKASSSLQLVFGIELMEVDPIGHLYIFATCLGLSYDGLLGDNQIMPKAGLLIIVLAIIAREGDCAPEEKIWEELSVLEVFEGREDSILGDPKKLLTQHFVQENYLEYRQVPGSDPACYEFLWGPRALVETSYVKVLHHMVKISGGPHISYPPLHEWVLREGEE
On to B3, for which the “BRET signal, fold over the negative control” value with HaloTag-DCAF12 wild type amounted to 22 fold.

B4: FITC-labeled CCT5 C-terminal degron peptide (peptide)
peptide: IRKPGESEE
modifications: also: FITC label, position not given here
In the assay with DCAF12 (Δ1-78) [3], B4 had a Kd of less than 370 nM.

B5: unlabeled CCT5 C-terminal degron peptide (peptide)
peptide: IRKPGESEE
B5: the binding result (with DCAF12 (Δ1-78) [1]; in assay [2]) was “binds” in each case.
